Experimental data: patent US20130012916A1
Several values for one entry are separate records, joined by “and”; a condition that tells them apart may be missing. Identical values can stand only once.

Columns and labels:
vWF A1-domain [1] = target: vWF A1-domain (UniProt P04275); test: SPR (Biacore 3000), vWF A1-domain on CM5 chip, parallel line analysis
vWF A1-domain [2] = target: vWF A1-domain (UniProt P04275); test: SPR (Biacore 3000), vWF A1-domain on CM5 chip, parallel line analysis; second of two independent analyses
vWF A1-domain [3] = target: vWF A1-domain (UniProt P04275); test: SPR (Biacore 3000), vWF A1-domain on CM5 chip, parallel line analysis; first of two independent analyses

- relative potency versus reference (non lyophilised, stored at -70 C) (vWF A1-domain [1]): 94.8% and 117% and 93.3%
- relative potency versus reference (non lyophilised, stored at -70 C) (vWF A1-domain [2]): 96.1%
- relative potency versus reference (non lyophilised, stored at -70 C) (vWF A1-domain [3]): 94.6%
B1: Nanobody ALX0081sv1 (vWF0002) (VHH)
chain: DVQLVESGGGLVQPGGSLRLSCAASGRTFSYNPMGWFRQAPGKGRELVAAISRTGGSTYYPESVEGRFTISRDNAKRTVYLQMNSLRAEDTAVYYCAAAGVRAEQGRVRTLPSEYTFWGQGTQVTVSSAAAEVQLVESGGGLVQPGGSLRLSCAASGRTFSYNPMGWFRQAPGKGRELVAAISRTGGSTYYPESVEGRFTISRDNAKRTVYLQMNSLRAEDTAVYYCAAAGVRAEQGRVRTLPSEYTFWGQGTQVTVSS
